Results as given in patent US20260234242A1 (HAINAN SIMCERE ZAIMING PHARMACEUTICAL, published 2026).
Read-outs that look alike come from different tables or passages of the source.

T1: human CDH6 on tumor cells (OVCAR3 cells, PA-1 cells) (human, UniProt P55285 54-790)
T1 sequence: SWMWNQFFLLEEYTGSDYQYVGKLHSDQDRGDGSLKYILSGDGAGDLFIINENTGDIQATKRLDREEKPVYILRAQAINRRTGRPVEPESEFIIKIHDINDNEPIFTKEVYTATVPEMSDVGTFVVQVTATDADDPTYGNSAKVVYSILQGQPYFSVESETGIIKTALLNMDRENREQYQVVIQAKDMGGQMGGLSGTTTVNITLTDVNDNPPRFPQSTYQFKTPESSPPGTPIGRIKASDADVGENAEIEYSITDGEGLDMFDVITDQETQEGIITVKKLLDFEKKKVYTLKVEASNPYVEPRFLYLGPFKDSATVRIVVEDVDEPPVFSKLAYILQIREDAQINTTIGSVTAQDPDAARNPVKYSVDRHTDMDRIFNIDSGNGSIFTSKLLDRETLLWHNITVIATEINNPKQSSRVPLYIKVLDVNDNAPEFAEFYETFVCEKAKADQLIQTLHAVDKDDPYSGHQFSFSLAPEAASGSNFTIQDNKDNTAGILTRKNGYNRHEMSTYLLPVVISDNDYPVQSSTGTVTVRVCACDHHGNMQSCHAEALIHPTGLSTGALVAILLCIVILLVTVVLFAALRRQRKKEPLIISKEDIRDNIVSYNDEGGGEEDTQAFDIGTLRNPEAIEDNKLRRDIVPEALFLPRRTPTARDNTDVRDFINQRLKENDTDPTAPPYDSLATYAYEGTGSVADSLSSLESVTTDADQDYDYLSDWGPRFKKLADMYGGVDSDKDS

T2: his-tagged human CDH6 extracellular region protein (hCDH6 ECD-his) (human, UniProt P55285 19-615)
T2 construct: also called Human CDH6-his; hCDH6-his; not shown: his tag
T2 sequence: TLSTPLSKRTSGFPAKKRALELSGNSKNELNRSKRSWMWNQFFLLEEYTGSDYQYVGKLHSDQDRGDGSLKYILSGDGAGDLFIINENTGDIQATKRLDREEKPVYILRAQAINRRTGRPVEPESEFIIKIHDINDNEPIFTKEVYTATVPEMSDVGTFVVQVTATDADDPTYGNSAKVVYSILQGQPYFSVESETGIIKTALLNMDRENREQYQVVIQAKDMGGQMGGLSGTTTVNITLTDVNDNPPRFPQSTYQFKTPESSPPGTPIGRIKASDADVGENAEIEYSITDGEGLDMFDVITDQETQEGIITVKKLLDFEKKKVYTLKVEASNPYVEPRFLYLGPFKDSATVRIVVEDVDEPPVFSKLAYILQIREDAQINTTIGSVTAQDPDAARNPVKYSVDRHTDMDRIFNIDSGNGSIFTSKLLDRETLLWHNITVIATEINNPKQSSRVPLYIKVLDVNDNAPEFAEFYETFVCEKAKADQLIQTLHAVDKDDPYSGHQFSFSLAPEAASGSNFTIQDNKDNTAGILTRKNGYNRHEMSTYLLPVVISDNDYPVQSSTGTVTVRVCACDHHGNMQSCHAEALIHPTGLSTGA

B1: CHI-CDH6-6 (antibody, human IgG1, kappa, V domains shown)
VH: EVQLQQSGPELVKPGDSVKMSCKASGYTFTDYYMAWVRQSHRKSLEWIGYIFPNSGGTDYSQKFKGKATLTVDKSSSTVYMELHSLTSEDSAVYYCARELGADYGDYYAMDHWGQGTSVSVSS
VL: DIQMTQSPASLSASVGETVTITCRASENIDSYLAWYQQKQGKSPQLLVYSATLLADGVPSRFSGSGSGTQYSLKINSLKSEDVARYYCQHYYRTPPTFGSGTKLEIKR
notes: also called CHI-hCDH6-6; chimeric antibody of murine CDH6-6
B2: hCDH6-1-H2L3 (antibody, V domains shown)
VH: EVQLVQSGAEVKKPGSSVKVSCKASGYTFTNYWMHWVRQAPGQGLEWMGDIDPSHSETHYTQKFKDRVTITVDKSTSTAYMELSSLRSEDTAVYYCARGDLGRFDYWGQGTTVTVSS
VL: DIQMTQSPSSLSASVGDRVTITCRASESVSIHGTHLMHWYQQKPGKPPKLLIYAASNLESGVPSRFSGSGSETDFTFTISSLQPEDIATYYCQQSFEDPWTFGGGTKVEIK
notes: Humanized
B3: hCDH6-6-H2L2 (antibody, V domains shown)
VH: EVQLVQSGAEVKKPGASVKVSCKASGYTFTDYYMAWVRQAPGQGLEWMGYIFPNSGGTDYSQKFKGRVTLTVDKSTSTVYMELSSLRSEDTAVYYCARELGADYGDYYAMDHWGQGTTVTVSS
VL: DIQMTQSPSSLSASVGDRVTITCRASENIDSYLAWYQQKPGKSPKLLVYSATLLADGVPSRFSGSGSGTDYTLTISSLQPEDFATYYCQHYYRTPPTFGQGTKLEIK
notes: Humanized
B4: CHI-CDH6-1 (antibody, human IgG1, kappa, V domains shown)
VH: QVQLQQPGAELVRPGSSVKLSCKASGYTFTNYWMHWVKQRPIEGLEWIGDIDPSHSETHYTQKFKDKATLTVDKSSSTAYMQLSSLTSEDSAVYYCARGDLGRFDYWGQGTTLTVSS
VL: DIVLTQSPASLAVSLGQRATISCRASESVSIHGTHLMHWYQQKSGQPPKLLIYAASNLESGVPARFSGSGSETDFTFNIHPVEEEDAATYFCQQSFEDPWTFGGGTKLEIKR
notes: also called CHI-hCDH6-1; CH1-CDH6-1

Assays:
[1] = target: T1, human CDH6 on tumor cells (OVCAR3 …); test: FACS, OVCAR3 cells
Procedure, shortened: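 OVCAR3 (high CDH6) and PA-1 (moderate CDH6) cells in PBS + 2% FBS were incubated with diluted chimeric antibodies for 1 h at 4° C, then with a further reagent for 1 h at 4° C. After washing, mean fluorescence intensity was read by flow cytometry and EC50 values came from curve fitting.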

[2] = target: T2, his-tagged human CDH6 extracellular …; test: SPR Biacore, antibody captured on Protein A
Protocol: (§1) The affinity of the antibody for the antigen was determined by a multi-cycle kinetic method using a BIAcore 8K instrument. In each cycle, the antibody to be tested was captured using a Protein A chip (purchased from GE, Cat. No. 29-1275-56), and then the antigen human CDH6 protein (hCDH6-his, conventionally synthesized) was injected. The association and dissociation processes of the antibody with the antigen protein were recorded, and finally, the chip was regenerated using Glycine pH 1.5, wherein the mobile phase was HBS-EP+ (10 mM HEPES, 150 mM NaCl, 3 mM EDTA, 0.05% surfactant P20, and 1 mM Ca), the flow rate was 30 μL/min, the association time was 240 s, the dissociation time was 300 s, the regeneration time was 30 s, the detection temperature was 25° C., and the antigen concentration was 31.25-1000 nM. The data were analyzed using Biacore 8K analysis software (version No. 2.0) based on the 1:1 binding model to fit the antibody-antigen binding kinetic parameters, including the association rate constant ka, the dissociation rate constant kd, and the equilibrium dissociation constant KD. The affinity values of the control antibody DS-H01L02 were undetectable. Antibodies not shown in the table had undetectable affinity values.
Four hCDH6-6 humanized antibodies with fewer back mutations were selected, and the affinity for human CDH6 protein was further confirmed using Biacore.

[3] = target: T2, his-tagged human CDH6 extracellular …; test: SPR Biacore, antibody captured on Protein A; remark: listed apart in the source
Protocol: as §1
Four hCDH6-1 humanized antibodies with fewer back mutations were selected, and the affinity for human CDH6 protein was further confirmed using Biacore.

Binder	EC50 [1] [nM]	Max MFI [1] [MFI]	Kd [2] [nM]	koff [2] [s⁻¹]	kon [2] [M⁻¹ s⁻¹]	Kd [3] [nM]	koff [3] [s⁻¹]	kon [3] [M⁻¹ s⁻¹]
B1	0.68	14100	87.1	0.00424	48700			
B2						18	0.00821	457000
B3	0.56	14300	89.8	0.00468	52100			
B4						11.4	0.00504	442000
